Assay results reported in article PMC10711565.
Like-named read-outs stand apart in the source and are kept apart here.

B1: HCV45 (structured_RNA)
RNA: GCCAGCCCCCUGAUGGGGGCGACACUCCACCAUGAAUCACUCCCC
B2: HCV45:miR-122 complex (structured_RNA)
RNA 1: B1 RNA
RNA 2: UGGAGUGUGACAAUGGUGUUUG
B3: miR-122 (ssRNA)
RNA: UGGAGUGUGACAAUGGUGUUUG
B4: HCV47 (structured_RNA)
RNA: GCCAGCCCCCUGAUGGGGGCGACACUCCACCAUGAAUCACUCCCCUG

Legend:
Test in all cases: fluorescence anisotropy
PCBP2 [1] = biological target: T1, PCBP2 (UniProt Q15366 1-365)
PCBP2 [2] = biological target: T1, PCBP2; remark: listed apart in the source
PCBP2 [3] = biological target: T1, PCBP2; remark: listed apart in the source

T1 sequence (Q15366 whole entry): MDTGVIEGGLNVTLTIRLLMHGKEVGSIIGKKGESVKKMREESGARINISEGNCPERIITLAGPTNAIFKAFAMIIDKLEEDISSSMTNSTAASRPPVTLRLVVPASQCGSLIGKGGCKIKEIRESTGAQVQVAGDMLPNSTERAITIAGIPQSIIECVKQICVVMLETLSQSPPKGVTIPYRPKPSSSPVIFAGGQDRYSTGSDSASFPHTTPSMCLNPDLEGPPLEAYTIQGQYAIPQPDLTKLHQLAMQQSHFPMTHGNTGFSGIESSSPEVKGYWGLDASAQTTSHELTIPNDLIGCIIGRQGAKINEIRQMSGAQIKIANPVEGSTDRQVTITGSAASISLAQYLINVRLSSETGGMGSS

| Binder | Kd (PCBP2 [1]) | other results |
| --- | --- | --- |
| B1 | 0.667 ± 0.034 µM | – |
| B2 | – | Kd (PCBP2 [2]): 9.88 ± 1.6 µM |
| B3 | 5.33 ± 0.47 µM | – |
| B4 | – | binding result (PCBP2 [3]): binds |
